Test results published in the DeepSol protein solubility set.

Assay: soluble on expression in E. coli; label from the status in PepcDB or PDB records

Sequence | soluble on expression in E. coli
MKKIATATIATAGIATFAFAQHDADAAENNNSGYNPNDPSSYSYSYTIDQQGQYHYTWQGNWNPSNSDQGHTSNGYSNANSTNNNATQSYTTNNQGTGGKGAVSHSTSNSNVKVSTTSAPSNSNGSNSISNTSGSSNNLYTAGQCTYYVYDKVGGKIGSTWGNANNWASAAAASGYTVNNSPASGSVLQSTAGGYGHVAYVENVNSDGSINVSEMNYGQGAGVVTSRTISASEASGYNYIH | not soluble
GWRAKVAGIDPKGSDTHYSEGSSYTFYPYGQAVLLPNIFAHRDVGNTACPGRYGYAQMDNIRNIAKQKYDSIRSGSGATAPAAPSTPSKPAPAPAAPAAPSAPAAPAGTNPIGLLSQGSTPANAGSLVGLAVAAATSLGLIGNLNNIGDVPVIGGLKLSQLQPIIGKIVELLGNNDISRVWRDVNSFAGAALGNARSPIAHYASATGTPIDYALFDNGIVISNPETGTNALWGTIGDLWAQQGFEAGPLGLPTSSVFEVDGLQRVNFQHGYITFNPTTSAVDIQVQ | not soluble
MSLGVQPPNFSWVLPGRLAGLALPRLPAHYQFLLDLGVRHLVSLTERGPPHSDSCPGLTLHRLRIPDFCPPAPDQIDRFVQIVDEANARGEAVGVHCALGFGRTGTMLACYLVKERGLAAGDAIAEIRRLRPGSIETYEQEKAVFQFYQRTKEGHHHHHH | soluble
DGDYIKDAVKEINYFMRDWRVDQVKSMDLRTVDIMAAAHNLMDVNEPYMLLSGYRSPQTNAMLRSRSRGVARNSLHMQGQAADLRLASRSVSQMANAAIACRAGGVGKYYRSNFVHMDCGEVRSWGG | not soluble
MEERGDSEPTPGCSGLGPGGVRGFGDGGGAPSWAPEDAWMGTHPKYLEMMELDIGDATQVYVAFLVYLDLMESKSWHEVNCVGLPELQLICLVGTEIEGEGLQTVVPTPITASLSHNRIREILKASRKLQGDPDLPMSFTLAIVESDSTIVYYKLTDGFMLPDPQNISLRR | soluble
MDASLTGAVAELGTSKAAARIRAAAIEVFAAKGYGATTTREIAASLDMSPGAVYPHYKTKESLLYAISLEGHHSVLAAITAADFPDIAAPDRLMSTVTAYVTWHADNRASARVGQYELRSLSPEHFAIIADIRRSTTKVFTRIIEAGATAGDFHPFDIEAAALAITSLGIDVSRWFPSHTYSDPRIIAARYVELALRMVGCADRQPLDKPS | soluble
VAITDNRGVITHVNEKFCDISQYEYYELVGTTHKIINSGFHPRSFFKQMWKTIAQGNIWKGEICNRTKQGKLYWVDTTIVPLKDNDGLLKNYISIRTDITQ | not soluble
MGSDKIHHHHHHMVGNYRGMGRFARQLVEPVGASVLGLAPSGVHADEWPCVSQGHGFFPWWEQVELPRLCREQRLDYLLCPYNTGPLRSTGNTRVVAVIHDLIYMEPWHVLPPARSVYQTVGRVYRRHVVPRLVRRADVVLTVSRFTQRELVKKFELREGDVRVVPCTISDDWFEPPVSRTARQPYLFTVAGEVPSKNVGRLLQAFAIARPALGDDARLRIAGIKAEHHAHFLGLADSLGLTNAVELLGYVSREELREQYRQARAFVFASLFEGFGIPLLEAMASGTPVACSNTTSMPEIAGNCALQFDPRSVEDMAEQIRAIWDDSARFEVALGDGVNRARTYSESAVRPSIEDFWAGLA | not soluble
MAHHHHHHMSSTSTTHPQLLLQQSKVKYLMKVCRPLCQFTQKCNRGSWVERTFGAERKKASSASEDNDLLSMHLPFSSDTAPPCGYSTTEAVRLISLPYHPHVYAYCLFESRLIFERAVLHGAIAPNVKPSQFFVHPISVMRHPEKFKLFFGEERSDVLLRLLVDLLGEYDGDDRSVVQKCRAKGVSNENWVPFLRGLGLCLAMGDIASSQATFVMEDCITGGGADCGLSLPGSYEKRGSVAAELLMEASVELGSLTLANLSLSLYRQFLPEVPLTASKKVTICTTRCERRFLEWNQRCLKTGPRR | not soluble
MAHHHHHHMERGKNPMEAELNRAPQEVSLSAFSLLFSEIVQYCLWKSKRGYRIEDSLHEMGLRVGYKLNEYLPYKNKTKRCVNIISILTFLSKHLWKYLFQHSSDLLKSQDSIYEYMLCDKNILLNRFISVPKDYGNINCASFAAGIVEGMLCSAEFQAEVTAHTVYEDEKNFNTTIFIKFYPEVVNRERGEK | not soluble
